Results from patent US20220332804A1 (CSL INNOVATION, published 2022).

What was measured:
Assay in all cases: SPR, antibody captured, C2 as analyte;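 also: biacore SPR at 37 °C, anti-C2 mAbs captured via goat anti-human IgG on CM5 chips, double-referenced sensorgrams fit to a 1:1 kinetic or steady-state model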
human C2 K721A = target: T1, human C2 K721A (human, UniProt P06681 21-752)
T1 sequence: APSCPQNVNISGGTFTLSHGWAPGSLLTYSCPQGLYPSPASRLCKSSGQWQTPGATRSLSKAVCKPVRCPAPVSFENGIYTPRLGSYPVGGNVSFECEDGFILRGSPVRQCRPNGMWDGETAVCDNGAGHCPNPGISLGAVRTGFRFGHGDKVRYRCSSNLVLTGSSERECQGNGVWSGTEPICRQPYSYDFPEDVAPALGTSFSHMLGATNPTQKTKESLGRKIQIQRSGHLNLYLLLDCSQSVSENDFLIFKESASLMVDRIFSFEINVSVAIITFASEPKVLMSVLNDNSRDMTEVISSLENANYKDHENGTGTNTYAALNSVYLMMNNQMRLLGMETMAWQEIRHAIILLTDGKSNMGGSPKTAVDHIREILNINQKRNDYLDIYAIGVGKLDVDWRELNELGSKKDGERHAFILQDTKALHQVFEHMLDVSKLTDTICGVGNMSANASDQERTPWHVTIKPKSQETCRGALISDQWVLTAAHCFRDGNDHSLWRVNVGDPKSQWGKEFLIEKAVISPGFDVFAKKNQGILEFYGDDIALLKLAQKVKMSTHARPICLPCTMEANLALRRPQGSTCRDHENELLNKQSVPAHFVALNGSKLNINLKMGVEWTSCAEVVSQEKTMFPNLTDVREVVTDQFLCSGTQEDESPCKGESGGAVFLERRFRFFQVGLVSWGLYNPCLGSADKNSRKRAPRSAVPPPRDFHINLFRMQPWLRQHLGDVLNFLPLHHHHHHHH

human C2 N325A = target: T2, human C2 N325A (human, UniProt P06681 21-752)
T2 sequence: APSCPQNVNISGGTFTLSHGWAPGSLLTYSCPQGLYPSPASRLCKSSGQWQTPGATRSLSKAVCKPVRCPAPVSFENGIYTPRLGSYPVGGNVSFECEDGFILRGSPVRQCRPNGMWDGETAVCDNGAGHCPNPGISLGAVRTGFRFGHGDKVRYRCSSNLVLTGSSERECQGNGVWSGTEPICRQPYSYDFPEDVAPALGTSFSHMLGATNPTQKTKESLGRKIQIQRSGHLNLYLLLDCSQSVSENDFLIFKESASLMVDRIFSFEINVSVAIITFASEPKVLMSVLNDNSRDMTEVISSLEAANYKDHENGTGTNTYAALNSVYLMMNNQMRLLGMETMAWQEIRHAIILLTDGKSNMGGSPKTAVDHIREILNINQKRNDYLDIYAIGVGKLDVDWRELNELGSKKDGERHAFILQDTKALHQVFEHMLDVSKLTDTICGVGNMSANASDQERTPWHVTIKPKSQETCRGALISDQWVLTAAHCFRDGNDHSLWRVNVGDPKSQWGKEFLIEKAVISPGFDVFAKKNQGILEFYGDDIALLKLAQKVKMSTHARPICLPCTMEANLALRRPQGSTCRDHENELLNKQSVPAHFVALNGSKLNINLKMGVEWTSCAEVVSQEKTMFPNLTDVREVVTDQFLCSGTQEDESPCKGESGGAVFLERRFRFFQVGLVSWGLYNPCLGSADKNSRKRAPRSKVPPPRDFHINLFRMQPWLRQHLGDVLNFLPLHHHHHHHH

human C2 H451A = target: T3, human C2 H451A (human, UniProt P06681 21-752)
T3 sequence: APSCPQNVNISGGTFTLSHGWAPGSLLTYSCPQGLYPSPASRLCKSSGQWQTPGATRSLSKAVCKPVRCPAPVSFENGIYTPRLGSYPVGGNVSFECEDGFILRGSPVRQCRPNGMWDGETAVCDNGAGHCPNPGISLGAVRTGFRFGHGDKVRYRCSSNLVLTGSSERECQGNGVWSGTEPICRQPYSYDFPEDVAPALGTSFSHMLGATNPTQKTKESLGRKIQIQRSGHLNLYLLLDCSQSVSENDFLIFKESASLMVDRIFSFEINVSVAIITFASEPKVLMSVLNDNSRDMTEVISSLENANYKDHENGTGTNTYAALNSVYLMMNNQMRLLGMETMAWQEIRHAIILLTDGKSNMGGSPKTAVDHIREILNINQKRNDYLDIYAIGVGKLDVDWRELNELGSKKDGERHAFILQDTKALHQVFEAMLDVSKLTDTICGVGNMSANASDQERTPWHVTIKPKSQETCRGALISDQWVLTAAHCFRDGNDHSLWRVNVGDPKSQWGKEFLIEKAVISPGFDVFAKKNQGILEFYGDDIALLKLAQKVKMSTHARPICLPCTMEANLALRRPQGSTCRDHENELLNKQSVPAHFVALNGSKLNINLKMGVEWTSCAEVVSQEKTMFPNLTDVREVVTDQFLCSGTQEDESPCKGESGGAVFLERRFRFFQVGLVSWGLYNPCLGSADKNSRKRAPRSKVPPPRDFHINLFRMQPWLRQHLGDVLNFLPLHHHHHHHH

human C2 N467A = target: T4, human C2 N467A (human, UniProt P06681 21-752)
T4 sequence: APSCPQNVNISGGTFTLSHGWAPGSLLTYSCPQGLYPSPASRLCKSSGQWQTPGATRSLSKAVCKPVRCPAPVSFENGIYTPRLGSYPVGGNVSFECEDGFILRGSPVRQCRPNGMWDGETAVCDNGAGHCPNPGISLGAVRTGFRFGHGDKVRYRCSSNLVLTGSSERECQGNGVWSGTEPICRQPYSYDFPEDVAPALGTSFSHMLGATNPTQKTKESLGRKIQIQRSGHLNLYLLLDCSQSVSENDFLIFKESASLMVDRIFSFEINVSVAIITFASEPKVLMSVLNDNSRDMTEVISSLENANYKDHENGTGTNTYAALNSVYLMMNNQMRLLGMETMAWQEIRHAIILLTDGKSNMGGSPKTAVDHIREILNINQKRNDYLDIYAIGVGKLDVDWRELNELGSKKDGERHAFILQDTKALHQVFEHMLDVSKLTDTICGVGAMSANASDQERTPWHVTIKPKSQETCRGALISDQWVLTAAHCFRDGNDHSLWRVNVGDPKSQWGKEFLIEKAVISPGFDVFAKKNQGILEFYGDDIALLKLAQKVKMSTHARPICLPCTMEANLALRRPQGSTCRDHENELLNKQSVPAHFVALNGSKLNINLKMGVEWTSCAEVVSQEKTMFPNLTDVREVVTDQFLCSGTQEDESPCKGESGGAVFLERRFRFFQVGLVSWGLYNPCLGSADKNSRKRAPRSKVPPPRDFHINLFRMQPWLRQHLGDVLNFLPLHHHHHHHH

B1: RF16-226 (antibody, human IgG4 S228P, lambda)
heavy: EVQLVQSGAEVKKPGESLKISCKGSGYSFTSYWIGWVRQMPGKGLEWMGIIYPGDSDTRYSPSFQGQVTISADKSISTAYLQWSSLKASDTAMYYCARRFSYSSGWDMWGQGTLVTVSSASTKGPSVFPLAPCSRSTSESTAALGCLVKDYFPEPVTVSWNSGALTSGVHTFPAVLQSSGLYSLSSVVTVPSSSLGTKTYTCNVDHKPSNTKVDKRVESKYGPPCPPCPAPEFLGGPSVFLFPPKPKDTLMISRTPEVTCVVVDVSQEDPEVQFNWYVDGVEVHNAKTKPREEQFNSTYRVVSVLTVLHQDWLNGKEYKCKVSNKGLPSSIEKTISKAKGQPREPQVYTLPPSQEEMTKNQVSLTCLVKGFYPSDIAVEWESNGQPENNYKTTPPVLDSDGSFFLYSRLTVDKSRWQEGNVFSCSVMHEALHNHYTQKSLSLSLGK
light: SYELTQPPSVSVSPGQTARITCSGDALTSKYVAWYQQKSGLAPLLVIYEDTRRPSGIPAKFSGSSSGSVATLTISGAHGDDEADYYCYSTDASGHQRVFGGGTKLTVLSQPKAAPSVTLFPPSSEELQANKATLVCLISDFYPGAVTVAWKADGSPVKAGVETTKPSKQSNNKYAASSYLSLTPEQWKSHRSYSCQVTHEGSTVEKTVAPTECS
notes: pH-dependent anti-C2 antibody from a phage display library; also called WT
Kd (human C2 K721A): 99.9 nM
Kd (human C2 N325A): 51.3 nM
Kd (human C2 H451A): 105 nM
Kd (human C2 N467A): 19.7 nM
